Data from patent US20110070235A1.

Target: M2e
Assay: peptide ELISA, mAb 5 ug/mL

Substance: TCN-031 (23K12) (antibody)
- ELISA A450: 0.43

Substance: chimeric mouse V-region/human IgG1 kappa 14C2 antibody
- ELISA A450: 3.98
